Substrate in this series: C=C(C)CCO[P@@](=O)(O)OP(=O)(O)O
As to the kind of experiment: purified protein. As to conditions: IPP 0.5-50 µM.

The mark [1] stands for this setting: co-substrate GPP 60 µM, FPP formation.

Residue numbers refer to the chain shown, from its start. Numbers in names are those of the source.

B1: RcG/FPPS1 (Rosa chinensis; F88Y) (protein)
chain: MADLKSKFLNVYSVLKSELLEDPAFEFTDASRQWVERMLDYNVPGGKLNRGLSVIDSYQLLQQGRELTEDEIFQASALGWCIEWLQAYFLVLDDMMDGSHTRRGQPCWFRLPKVGLIAANDGVLLRNHIPRILKKHFRQKPYYVDLVDLFNEVEFQTASGQLIDLITTIDGEKDLSKYSLSIHRRIVQYKTAYYSFYLSVACALLMSGEELDKHIDVKNLLVDMGIYFQVQDDYLDCFGDPETIGKIGTDIEDFKCSWLVVKALELSNEEQKKILHENYGNPDPAKVAKVKALYKELDLQGVFAEYERQSYEKLISSIEAHPSKAVQEVLKSFLGKIYKRKK
What is called Km is the substrate concentration at which the rate is half of its maximum. On to B1, for which the Km under setting [1] came to 9.08 ± 0.74 µM.

B2: RcG/FPPS1 (Rosa chinensis; V123I) (protein)
chain: B1 chain with Y88F, V123I
Regarding B2, under setting [1], the Km was found to be 14.74 ± 1.94 µM.

B3: RcG/FPPS1 (Rosa chinensis) (protein)
chain: B1 chain with Y88F
Take B3: the Michaelis-Menten constant (Km) (co-substrate DMAPP 60 µM, GPP formation) amounted to 0.44 ± 0.03 µM.

B4: RcG/FPPS1 (Rosa chinensis; F88Y/V123I) (protein)
chain: B1 chain with V123I
As to B4, the Km under setting [1] is 12.78 ± 3.07 µM.

B5: RcFPPS2 (Rosa chinensis) (protein)
chain: MSNLRAKFMEVYSVLKSELINDPAFEFTDVSRQWIERMLDYNVPGGKLNRGLSVVDSFKLLKEGRELTDEEVFQSCALGWCIEWLQAYFLVLDDIMDGSHTRRGQPCWFRQPKIGMIAANDGIILRNHIPRILKNHFRVMPYYVDLLDLFNEVEFQTAHGQMIDLITTHEGEKDLSKYSLEIHRRIVQYKTAYYSFYLPVACALVMAGKNVESHADVKNILIEMGTYFQVQDDYLDCFGDPEVIGKVGTDIQDFKCSWMVVKALELSNEEQKKLLHENYGKDDQECIAKVKELYNVLDLQGVFTEYESSSYDKLTKSIEAHPSKAVQAVLKSFLAKIYKRQK
With B5, under setting [1], the Michaelis constant (Km) came out at 13.1 ± 3.4 µM.

These data come from PMC10175749.
